Read-outs that look alike come from different tables or passages of the source.
T1: NRP-1 peptide (Npep)
T1 sequence (peptide): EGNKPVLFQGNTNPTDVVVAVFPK

T2: NRP-1 peptide (Npep)
T2 construct: also called synthetic peptide Npep
T2 peptide: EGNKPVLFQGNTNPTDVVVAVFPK

B1: a-NRP1_SEM (antibody, from another filing, V domains shown)
VH: EVQLVESGGGLVQPGGSLRLSCAASGFSFSSEPISWVRQAPGKGLEWVSSITGKNGYTYYADSVKGRFTISADTSKNTAYLQMNSLRAEDTAVYYCARWGKKVYGMDVWGQGTLVTVSS
VL: DIQMTQSPSSLSASVGDRVTITCRASQSISSYLAWYQQKPGKAPKLLIYGASSRASGVPSRFSGSGSGTDFTLTISSLQPEDFATYYCQQYMSVPITFGQGTKVEIKR
B2: variant 8 a-NRP1_LEP n° 1 (antibody, V domains shown)
VH: EVQLVESGGGLVQPGGSLRLSCAASGFTFSSYSMHWVRQAPGKGLEWVSYISSGSSTIHYADSVKGRFTISRDNAKNSLYLQMNSLRAEDTAVYYCARRHYGSSRYWYFDVWGQGTTVTVSS
VL: EIVLTQSPATLSLSPGERATLSCRASQSVKSYLAWYQQKPGQAPRLLIYYASSRATGIPARFSGSGSGTDFTLTISSLEPEDFAVYYCQQYSESPYTFGQGTKLEIK
notes: humanized variant of 21B10; isotype control hIgG4; also called Var8; variant no 8
B3: variant 6 a-NRP1_LEP n° 1 (antibody, V domains shown)
VH: B2 VH
VL: DIQMTQSPSTLSASVGDRVTITCRASQSIKSYLAWYQQKPGKAPKLLIYYASSLASGVPSRFSGSGSGTEFTLTISSLQPDDFATYYCQQYGESSYTFGQGTKLEIK
notes: humanized variant of 21B10; isotype control hIgG4; also called Var6; variant no 6

Key:
[1] = molecular target: T3, native human NRP-1 on the cell surface (human, UniProt O14786 22-923); assay: flow cytometry, MDA-MB-231 cells, 10 ug/ml, -heparinase
T3 construct: whole, on cells; endogenous protein; isoform and glycosaminoglycan state on the cells not defined; also called native NRP-1 on MDA-MB-231 cells; native form of NRP-1 protein on the CTCs cell surface

[2] = molecular target: T3, native human NRP-1 on the cell surface; assay: flow cytometry, MDA-MB-231 cells, 40 ug/ml, -chondroitinase
[3] = molecular target: T3, native human NRP-1 on the cell surface; assay: flow cytometry, MDA-MB-231 cells, 40 ug/ml, +chondroitinase
[4] = molecular target: T3, native human NRP-1 on the cell surface; assay: flow cytometry, MDA-MB-231 cells, 10 ug/ml, +heparinase
[5] = molecular target: T3, native human NRP-1 on the cell surface; assay: flow cytometry, CTC cells mix, 50 ug/ml
[6] = molecular target: T3, native human NRP-1 on the cell surface; assay: flow cytometry, CTC cells mix, 10 ug/ml
[7] = molecular target: T3, native human NRP-1 on the cell surface; assay: flow cytometry, CTC cells mix, 25 ug/ml
[8] = molecular target: recombinant human NRP-1 (3870-N1-025, Bio-Techne) (human) (UniProt O14786); assay: ELISA, antibody 10 µg/ml, 1 µg immobilised human NRP-1
[9] = molecular target: recombinant murine NRP-1 (5994-N1-050, Bio-Techne) (murine) (UniProt P97333); assay: ELISA, antibody 10 µg/ml, 1 µg immobilised murine NRP-1
NRP-1 peptide (Npep) [10] = molecular target: T1, NRP-1 peptide (Npep); assay: ELISA, antibody 10 µg/ml, 2 µg immobilised Npep
[11] = molecular target: native human NRP-1 on the cell surface (human) (UniProt O14786); assay: flow cytometry, MDA-MB-231 cells, 40 ug/ml, with against without chondroitinase
[12] = molecular target: native human NRP-1 on the cell surface (human) (UniProt O14786); assay: flow cytometry, MDA-MB-231 cells, 10 ug/ml, -heparinase
[13] = molecular target: native human NRP-1 on the cell surface (human) (UniProt O14786); assay: flow cytometry, MDA-MB-231 cells, 10 ug/ml, with against without heparinase
[14] = molecular target: native human NRP-1 on the cell surface (human) (UniProt O14786); assay: flow cytometry, MDA-MB-231 cells, 40 ug/ml, -chondroitinase
[15] = molecular target: native human NRP-1 on the cell surface (human) (UniProt O14786); assay: flow cytometry, MDA-MB-231 cells, 40 ug/ml, +chondroitinase
[16] = molecular target: native human NRP-1 on the cell surface (human) (UniProt O14786); assay: flow cytometry, MDA-MB-231 cells, 10 ug/ml, +heparinase
[17] = molecular target: T3, native human NRP-1 on the cell surface; assay: flow cytometry, MDA-MB-231 cells, 40 ug/ml, -chondroitinase; remark: listed apart in the source
Experimental: (§1) Chondroitinase (C2905, Sigma) was reconstituted in a 0.01% BSA aqueous solution. The MDA-MB-231 cells were treated with chondroitinase (1 U/ml) for 2 hours at 37° C. The cells were detached using cell dissociation solution non-enzymatic (C5914, Sigma). 300,000 cells per condition were washed with 2% FBS in PBS and then incubated with different antibodies of interest or their respective isotype controls at 40 μg/ml for 30 min at 4° C. After wash, an Alexa 488-conjugated anti-human immunoglobulin antibody (20022-1, Biotium) was added at 10 μg/ml for 30 min at 4° C. After a final wash, fluorescence, size and granularity of cells were measured by the LSR Fortessa cytometer (BD Biosciences).

[18] = molecular target: T3, native human NRP-1 on the cell surface; assay: flow cytometry, MDA-MB-231 cells, 10 ug/ml, -heparinase; remark: listed apart in the source
[19] = molecular target: T4, recombinant murine NRP-1 (5994-N1-050, Bio-Techne) (murine, UniProt P97333 22-856); assay: ELISA, antibody 10 µg/ml, 1 µg immobilised murine NRP-1
T4 construct: extracellular domain; bought protein; also called mouse recombinant NRP-1

[20] = molecular target: T3, native human NRP-1 on the cell surface; assay: flow cytometry, MDA-MB-231 cells, 10 ug/ml, +heparinase; remark: listed apart in the source
NRP-1 peptide (Npep) [21] = molecular target: T2, NRP-1 peptide (Npep); assay: ELISA, antibody 10 µg/ml, 2 µg immobilised Npep
[22] = molecular target: T3, native human NRP-1 on the cell surface; assay: flow cytometry, MDA-MB-231 cells, 10 ug/ml, with against without heparinase
[23] = molecular target: T5, recombinant human NRP-1 (3870-N1-025, Bio-Techne) (human, UniProt O14786 22-856); assay: ELISA, antibody 10 µg/ml, 1 µg immobilised human NRP-1
T5 construct: extracellular domain; bought protein; also called human recombinant NRP-1

[24] = molecular target: T3, native human NRP-1 on the cell surface; assay: flow cytometry, MDA-MB-231 cells, 40 ug/ml, +chondroitinase; remark: listed apart in the source
Experimental: as §1

[25] = molecular target: T3, native human NRP-1 on the cell surface; assay: flow cytometry, MDA-MB-231 cells, 40 ug/ml, with against without chondroitinase
Experimental: as §1

Chain of recombinant murine NRP-1 (5994-N1-050, Bio-Techne) (murine) (P97333 22-856): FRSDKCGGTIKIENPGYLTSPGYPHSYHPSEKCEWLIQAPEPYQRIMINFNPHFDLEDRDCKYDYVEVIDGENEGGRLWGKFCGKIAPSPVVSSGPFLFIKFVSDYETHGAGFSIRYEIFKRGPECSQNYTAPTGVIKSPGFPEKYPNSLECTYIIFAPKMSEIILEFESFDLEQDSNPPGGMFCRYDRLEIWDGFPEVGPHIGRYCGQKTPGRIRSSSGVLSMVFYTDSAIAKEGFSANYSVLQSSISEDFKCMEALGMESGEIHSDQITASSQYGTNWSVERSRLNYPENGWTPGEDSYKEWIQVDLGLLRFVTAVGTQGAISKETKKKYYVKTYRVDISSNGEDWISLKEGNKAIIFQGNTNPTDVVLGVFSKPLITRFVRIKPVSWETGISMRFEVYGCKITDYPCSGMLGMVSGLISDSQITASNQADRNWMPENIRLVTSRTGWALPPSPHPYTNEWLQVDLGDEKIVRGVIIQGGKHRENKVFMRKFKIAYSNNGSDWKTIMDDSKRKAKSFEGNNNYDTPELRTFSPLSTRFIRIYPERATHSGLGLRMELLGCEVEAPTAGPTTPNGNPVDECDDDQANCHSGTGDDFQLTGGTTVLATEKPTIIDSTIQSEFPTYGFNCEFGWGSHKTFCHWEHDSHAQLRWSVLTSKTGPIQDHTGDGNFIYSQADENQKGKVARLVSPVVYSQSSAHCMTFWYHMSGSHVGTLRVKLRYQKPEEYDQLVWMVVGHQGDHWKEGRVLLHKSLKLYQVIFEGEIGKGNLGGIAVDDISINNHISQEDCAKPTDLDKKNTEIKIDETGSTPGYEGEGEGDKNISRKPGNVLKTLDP
T4 sequence (P97333 22-856): as above

Row | Molecule | percentage of binding [1] | percentage of binding [2] | percentage of binding [3] | percentage of binding [4] | percent of bound cells [5] | percent of bound cells [6] | percent of bound cells [7] | Absorbance [8] | Absorbance [9] | Absorbance (NRP-1 peptide (Npep) [10]) | percentage of binding [17] | percentage of binding [18] | Absorbance [19] | percentage of binding [20] | Absorbance (NRP-1 peptide (Npep) [21]) | delta (% of control) [22] | Absorbance [23] | percentage of binding [24] | delta (% of control) [25] | also measured
1 | mIgG2b isotype control (antibody) | 0.086% | 0.45% | 0.66% | 0.28% | 14.4% | 3.65% | 6.66% | – | – | – | – | – | – | – | – | – | – | – | – | –
2 | hIgG1 isotype control (antibody) | 0.17% | 0.1% | 0.063% | 0.14% | – | – | – | 0.073 | 0.084 | 0.05 | – | – | – | – | – | – | – | – | – | –
3 | hIgG4 isotype control (antibody) | 0.2% | 0.47% | – | 0.24% | 4.04% | 2.04% | 3.3% | 0.073 | 0.064 | 0.055 | – | – | – | – | – | – | – | – | – | –
4 | B1 | – | – | – | – | – | – | – | 0.407 | 0.431 | 0.063 | – | – | – | – | – | – | – | – | – | delta (% of control) [11]: -0.1%; percentage of binding [12]: 96.6%; delta (% of control) [13]: 1.1%; percentage of binding [14]: 100%; percentage of binding [15]: 99.9%; percentage of binding [16]: 97.7%
5 | B2 | – | – | – | – | – | – | – | – | – | – | 75.6% | 13.3% | 0.412 | 9.88% | 0.475 | -3.42% | 0.59 | 61.5% | -14.1% | –
6 | B3 | – | – | – | – | – | – | – | – | – | – | 85.3% | 13.1% | 0.72 | 11.5% | 0.684 | -1.6% | 0.799 | 69.1% | -16.2% | –

From patent publication US20260226176A1 (THERANOVIR, published 2026)
